Assay results published in paper PMC3742261, “Integrated Self-Assembly of the Mms6 Magnetosome Protein to Form an Iron-Responsive Structure” (International Journal of Molecular Sciences, 2013).
Where “and” joins values, the source holds several entries; their conditions need not be identical. Equal entries are not always repeated. Blank lines part the entries; values can stand above or below the molecule they belong to.

Key:
[1] = biological target: Mms6 W79F,W95F (Magnetospirillum magneticum strain AMB-1) (UniProt Q2W8R5); assay: SEC; Superose 12 column, protein loaded at 0.2 mg/mL, BC100 buffer (20 mM Tris, 100 mM KCl, pH 7.5), 4 °C; percent of total protein in the void volume by peak integration
[2] = biological target: Mms6 L84A, L86A, L88A, L90A, L92A (GL repeat replaced with a GA repeat) (Magnetospirillum magneticum strain AMB-1) (UniProt Q2W8R5); assay: SEC; Superose 12 column, protein loaded at 1 mg/mL, 4 °C; percent of total protein in the void volume by peak integration
[3] = biological target: Mms6 L84A, L86A, L88A, L90A, L92A (GL repeat replaced with a GA repeat) (Magnetospirillum magneticum strain AMB-1) (UniProt Q2W8R5); assay: SEC; Superose 12 column, protein loaded at 0.2 mg/mL, BC100 buffer (20 mM Tris, 100 mM KCl, pH 7.5), 4 °C; percent of total protein in the void volume by peak integration
[4] = biological target: Mms6 W79A (Magnetospirillum magneticum strain AMB-1) (UniProt Q2W8R5); assay: as above
[5] = biological target: Mms6 L128G (Magnetospirillum magneticum strain AMB-1) (UniProt Q2W8R5); assay: as above
[6] = biological target: Mms6 W79F (Magnetospirillum magneticum strain AMB-1) (UniProt Q2W8R5); assay: as above
[7] = biological target: Mms6 I117G (Magnetospirillum magneticum strain AMB-1) (UniProt Q2W8R5); assay: as above
[8] = biological target: Mms6 (wild type, mature form, His-tagged) (Magnetospirillum magneticum strain AMB-1) (UniProt Q2W8R5); assay: as above
[9] = biological target: Mms6 W95F (Magnetospirillum magneticum strain AMB-1) (UniProt Q2W8R5); assay: as above
[10] = biological target: Mms6 L132G (Magnetospirillum magneticum strain AMB-1) (UniProt Q2W8R5); assay: as above
[11] = biological target: Mms6 W95A (Magnetospirillum magneticum strain AMB-1) (UniProt Q2W8R5); assay: as above
[12] = biological target: the molecule itself; assay: SEC; Superdex Peptide 10/300 column, 80 micrograms C21Mms6, 10 mM Pi, pH 7.5; size from a standard curve
[13] = biological target: the molecule itself; assay: SEC; Superdex Peptide 10/300 column, 80 micrograms C21Mms6, 20 mM Tris, pH 7.5; size from a standard curve
[14] = biological target: the molecule itself; assay: SEC; Superdex Peptide 10/300 column, 80 micrograms C21Mms6, 10 mM Pi, 100 mM KCl, pH 7.5; size from a standard curve
[15] = biological target: the molecule itself; assay: SEC; Superdex Peptide 10/300 column, 80 micrograms C21Mms6, 20 mM Tris, 100 mM KCl, pH 7.5; size from a standard curve
[16] = biological target: the molecule itself; assay: SEC; Superdex Peptide 10/300 column, 80 micrograms C21Mms6, 50 mM Formate or Citrate, pH 3; size from a standard curve
[17] = biological target: the molecule itself; assay: SEC; Superdex Peptide 10/300 column, 80 micrograms C21Mms6, 20 mM Tris, 1.5 or 3 M KCl, pH 7.5; size from a standard curve
[18] = biological target: the molecule itself; assay: SEC; Superdex Peptide 10/300 column, 80 micrograms C21Mms6, 50 mM Formate or Citrate, pH 3 with FeCl3:protein = 8:1; size from a standard curve

% protein in Vo [2]: 55% | % protein in Vo [3]: 46% and 54%
Molecule: Mms6 L84A, L86A, L88A, L90A, L92A (GL repeat replaced with a GA repeat) (from UniProt Q2W8R5 1-133) (natural protein)

% protein in Vo [6]: 96%
Molecule: Mms6 W79F (from UniProt Q2W8R5 1-133) (natural protein)

% protein in Vo [7]: 94% and 95%
Molecule: Mms6 I117G (from UniProt Q2W8R5 1-133) (natural protein)

% protein in Vo [8]: 100%
Molecule: Mms6 (wild type, mature form, His-tagged) (from UniProt Q2W8R5 1-133) (natural protein)

% protein in Vo [11]: 49% and 70%
Molecule: Mms6 W95A (from UniProt Q2W8R5 1-133) (natural protein)

The remaining lines, values behind:

Molecule: Mms6 W79F,W95F (from UniProt Q2W8R5 1-133) (natural protein)
% protein in Vo [1]: 75% and 82%

Molecule: Mms6 W79A (from UniProt Q2W8R5 1-133) (natural protein)
% protein in Vo [4]: 79% and 83%

Molecule: Mms6 L128G (from UniProt Q2W8R5 1-133) (natural protein)
% protein in Vo [5]: 63% and 86%

Molecule: Mms6 W95F (from UniProt Q2W8R5 1-133) (natural protein)
% protein in Vo [9]: 97%

Molecule: Mms6 L132G (from UniProt Q2W8R5 1-133) (natural protein)
% protein in Vo [10]: 29% and 37%

B1: C21Mms6 (synthetic peptide of the C-terminal 21 amino acids of Mms6) (peptide, UniProt Q2W8R5 113-133, looked up)
peptide: KSRDIESAQSDEEVELRDALA
notes: Mms6, Magnetospirillum magneticum AMB-1, C-terminal 21 amino acids; also called synthetic 21 amino acid peptide C-terminal domain; source: synthetic peptide, ordered from GenScript
stoichiometry N [12]: 7.3 C21Mms6 units/multimer | stoichiometry N [13]: 2 C21Mms6 units/multimer | stoichiometry N [14]: 4 C21Mms6 units/multimer | stoichiometry N [15]: 4.1 C21Mms6 units/multimer | stoichiometry N [16]: 2 C21Mms6 units/multimer | stoichiometry N [17]: 1.8 C21Mms6 units/multimer | stoichiometry N [18]: 2.1 C21Mms6 units/multimer
